# Reference: publication PMC11094075
# Molecular target: HA-Ago2K212A, in Ago2-knockout A549 and HCC1806 cells (human) (UniProt Q9UKV8)
# Experiment: co-IP; Ago2-knockout A549 and HCC1806 cells expressing HA-Ago2Wt, HA-Ago2K212A or HA-Ago2K212R; IP with anti-HA, blot for endogenous CAV1; ratio pCAV1/pHA; vehicle or TM (10 µM)
substance,measurement,value
"Caveolin-1 (CAV1), endogenous (from UniProt Q03135 1-178) (natural protein)",percent decrease of co-precipitated CAV1 per precipitated HA-Ago2 (pCAV1/pHA) against HA-Ago2Wt,46%
